Results on five molecules are retold here after patent EP4714976A1 (Sunshine Lake Pharma Co., Ltd., dated 2026).

For assay [1], the target named is T1, human FGFR2b (Kaixia Biotechnology, catalog number FGR-HM1BB) (human, UniProt P21802-3 22-378).
T1 construct: extracellular domain; bought; also called hFGFR2b; human FGFR2b protein
The assay can be described thus: BLI, antibody on AHC2 sensor. A general note: In BLI a coated tip is dipped into the sample, and binding shifts an interference pattern.

Assay [2] addresses T2, FGFR2c (acro) (UniProt P21802 22-377). Description: ELISA. (In general: An ELISA detects its analyte on a solid surface through an enzyme-linked reagent.)
For assay [3], the target named is T3, FGFR4 (acro) (UniProt P22455 22-369).
T3 sequence (looked up): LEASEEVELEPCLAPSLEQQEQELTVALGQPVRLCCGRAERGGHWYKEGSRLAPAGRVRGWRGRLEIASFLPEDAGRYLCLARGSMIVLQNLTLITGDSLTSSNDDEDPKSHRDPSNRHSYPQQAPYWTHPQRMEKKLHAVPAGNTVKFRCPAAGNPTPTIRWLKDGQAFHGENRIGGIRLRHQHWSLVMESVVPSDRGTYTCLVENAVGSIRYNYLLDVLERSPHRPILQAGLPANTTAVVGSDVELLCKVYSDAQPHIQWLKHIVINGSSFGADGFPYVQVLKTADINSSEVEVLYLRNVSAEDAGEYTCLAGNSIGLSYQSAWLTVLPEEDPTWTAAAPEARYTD
The assay can be described thus: ELISA.

In assay [4] the target is T2, FGFR2c (acro). Description: ELISA, antibody 10 µg/mL.
In assay [5] the target is T3, FGFR4 (acro). The assay can be described thus: ELISA, antibody 10 µg/mL.
The target of assay [6] is T1, human FGFR2b (Kaixia Biotechnology, …). The assay can be described thus: ELISA, FGFR2b coated at 1 µg/ml.
Assay [7] deals with T4, FGFR2b on KATO III cells (human, UniProt P21802-3 22-822).
T4 construct: whole, on cells; also called KATO III cells that overexpress FGFR2b
T4 sequence (P21802 other isoform, or with tags, fused parts or gaps): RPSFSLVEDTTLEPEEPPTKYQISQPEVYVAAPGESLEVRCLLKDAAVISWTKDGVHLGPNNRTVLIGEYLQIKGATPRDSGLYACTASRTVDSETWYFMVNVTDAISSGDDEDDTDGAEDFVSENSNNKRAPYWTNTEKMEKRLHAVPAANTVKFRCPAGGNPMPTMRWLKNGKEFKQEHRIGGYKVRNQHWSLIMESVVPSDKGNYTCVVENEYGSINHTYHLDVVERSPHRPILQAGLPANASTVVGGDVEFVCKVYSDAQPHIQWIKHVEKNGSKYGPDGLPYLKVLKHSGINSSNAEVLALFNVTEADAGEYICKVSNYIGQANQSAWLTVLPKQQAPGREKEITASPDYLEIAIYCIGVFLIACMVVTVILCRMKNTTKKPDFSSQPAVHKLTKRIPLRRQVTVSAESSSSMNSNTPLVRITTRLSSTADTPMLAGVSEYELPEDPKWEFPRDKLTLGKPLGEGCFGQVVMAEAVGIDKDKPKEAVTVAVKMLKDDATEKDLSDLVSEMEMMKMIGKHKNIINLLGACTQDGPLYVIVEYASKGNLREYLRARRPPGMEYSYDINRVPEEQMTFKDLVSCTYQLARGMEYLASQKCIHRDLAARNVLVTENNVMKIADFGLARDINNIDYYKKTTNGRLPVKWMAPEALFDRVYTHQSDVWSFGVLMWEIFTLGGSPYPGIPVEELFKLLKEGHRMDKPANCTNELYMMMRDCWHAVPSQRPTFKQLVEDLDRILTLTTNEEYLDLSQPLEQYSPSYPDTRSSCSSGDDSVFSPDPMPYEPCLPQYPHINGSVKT
The assay can be described thus: flow cytometry, KATO III cells.

For assay [8], the target named is T5, recombinant cynomolgus monkey FGFR2b (cynomolgus monkey).
T5 construct: extracellular domain; bought; also called cynomolgus macaque FGFR2b
The assay can be described thus: ELISA, antibody 1ug/mL.

T1 sequence (P21802 other isoform, or with tags, fused parts or gaps): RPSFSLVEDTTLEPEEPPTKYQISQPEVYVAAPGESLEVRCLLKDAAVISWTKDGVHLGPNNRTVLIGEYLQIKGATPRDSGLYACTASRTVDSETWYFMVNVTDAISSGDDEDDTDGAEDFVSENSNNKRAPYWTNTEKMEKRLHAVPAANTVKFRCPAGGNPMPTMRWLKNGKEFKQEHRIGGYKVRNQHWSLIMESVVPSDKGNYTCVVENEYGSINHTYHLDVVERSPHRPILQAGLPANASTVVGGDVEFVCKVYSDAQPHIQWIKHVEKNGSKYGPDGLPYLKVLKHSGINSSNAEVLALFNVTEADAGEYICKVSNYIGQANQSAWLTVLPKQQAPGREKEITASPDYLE
T2 sequence (P21802 22-377): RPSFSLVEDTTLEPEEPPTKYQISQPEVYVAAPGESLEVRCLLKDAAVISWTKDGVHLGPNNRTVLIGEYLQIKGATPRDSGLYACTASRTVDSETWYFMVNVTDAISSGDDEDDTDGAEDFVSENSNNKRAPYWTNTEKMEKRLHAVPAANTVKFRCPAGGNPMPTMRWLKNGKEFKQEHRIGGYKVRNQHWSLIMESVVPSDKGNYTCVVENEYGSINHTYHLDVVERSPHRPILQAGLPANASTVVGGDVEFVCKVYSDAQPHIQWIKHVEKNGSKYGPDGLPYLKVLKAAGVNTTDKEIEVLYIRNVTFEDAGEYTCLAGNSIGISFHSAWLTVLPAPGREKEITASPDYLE

B1: 1B8 scFv-Fc (Fc fusion)
chain: QIQLQQSGAELVKPGASVKMSCKASGYTFASYNLHWVKQTPGQGLEWIGLIYPENGDTSYNQKFKGKATLTADTSSTTAYIQLSSLTSEDSAVYFCARGGFDYWGQGTSLTVSSGGGGSGGGGSGGGGSDIKMTQSPASLSASVGETVTITCGASENIYGALNWYQRKQGKSPQLLIYGATNLADGMSSRFSGSGSGRQYSLKISSLHPDDVATYYCQNVLSTPYTFGGGTKLEIKESKYGPPCPPCPAPEAAGGPSVFLFPPKPKDTLMISRTPEVTCVVVDVSQEDPEVQFNWYVDGVEVHNAKTKPREEQFNSTYRVVSVLTVLHQDWLNGKEYKCKVSNKGLPSSIEKTISKAKGQPREPQVYTLPPSQEEMTKNQVSLTCLVKGFYPSDIAVEWESNGQPENNYKTTPPVLDSDGSFFLYSKLTVDKSRWQEGNVFSCSVMHEALHNHYTQKSLSLSLG
notes: scFv-Fc dimer
Take B1: the Kd in assay [1] amounted to 13.3 nM. In assay [1], this molecule gave a koff of 0.00629 s⁻¹. In assay [1], this molecule came in with a kon of 472000 M⁻¹ s⁻¹. The binding result in assay [2] and in assay [3] was “no binding (tested: 10 µg/mL)” each time. Further, the “OD (450 nm) value” in assay [4] turned out to be 0.076; in assay [5], 0.171; in assay [8] it was 3.25. For the same molecule, the figures for the EC50 in assay [6] and in assay [7] were 0.0273 µg/mL and 0.133 µg/mL, respectively.

B2: 3E2 scFv-Fc (Fc fusion)
chain: EIQLQQSGAELVKPGASVKMSCKASGYTFSFYNMHWVKRTPGQGLEWIGLIYPDNGDTSYNQKFKGKATLTADTSSSTAYMQLSSLTSEDSAVYYCARGGLDYWGQGTSLTVSSGGGGSGGGGSGGGGSNIVMTQSQKFMSTSVGDRVSVTCKASQNVGTNVAWYQQKPGQSPKALIYSASYRYTGVPDRFTGSGSGTDFTFTISSVQAEDLAVYYCQQHYSTPYTFGGGTKLEIKESKYGPPCPPCPAPEAAGGPSVFLFPPKPKDTLMISRTPEVTCVVVDVSQEDPEVQFNWYVDGVEVHNAKTKPREEQFNSTYRVVSVLTVLHQDWLNGKEYKCKVSNKGLPSSIEKTISKAKGQPREPQVYTLPPSQEEMTKNQVSLTCLVKGFYPSDIAVEWESNGQPENNYKTTPPVLDSDGSFFLYSKLTVDKSRWQEGNVFSCSVMHEALHNHYTQKSLSLSLG
notes: scFv-Fc dimer
Turning to B2, the Kd in assay [1] was 4.45 nM. Further, the koff in assay [1] amounted to 0.0011 s⁻¹. In assay [1], this molecule displayed an on-rate (kon) of 247000 M⁻¹ s⁻¹. Moreover, the binding result in assay [2] and in assay [3] was “no binding (tested: 10 µg/mL)” throughout. The figures for the “OD (450 nm) value” in assay [4], in assay [5] and in assay [8] were 0.138, 0.149 and 3.35, respectively. Besides, the EC50 in assay [6] is 0.0235 µg/mL; in assay [7], 0.236 µg/mL.

B3: 3E1 scFv-Fc (Fc fusion)
chain: QVQLQQPGAEVVKPGASVKMSCKASGYTFTDYYIHWVKQTPGQGLEWIGAIYPDNGDTSYNQKFKVKATLTADKSSSTAYMQLSSLTSEDSAVYYCARAFTYWGQGTLVTVSAGGGGSGGGGSGGGGSDILITQSPASLSASVGETVTITCGASENIYGALNWYQRKQGKSPQLLIYGATNLADGMSSRFSGSGSGRQYSLKISSLHPDDVATYYCQNVLSTPYTFGGGTKLEIKESKYGPPCPPCPAPEAAGGPSVFLFPPKPKDTLMISRTPEVTCVVVDVSQEDPEVQFNWYVDGVEVHNAKTKPREEQFNSTYRVVSVLTVLHQDWLNGKEYKCKVSNKGLPSSIEKTISKAKGQPREPQVYTLPPSQEEMTKNQVSLTCLVKGFYPSDIAVEWESNGQPENNYKTTPPVLDSDGSFFLYSKLTVDKSRWQEGNVFSCSVMHEALHNHYTQKSLSLSLG
notes: scFv-Fc dimer
In assay [1], B3 displayed a Kd of 4.5 nM. Also, the koff in assay [1] amounted to 0.00152 s⁻¹. In assay [1], this molecule yielded a kon of 337000 M⁻¹ s⁻¹. The binding result in assay [2] and in assay [3] was “no binding (tested: 10 µg/mL)” in each case. For the same molecule, the figures for the “OD (450 nm) value” in assay [4], in assay [5] and in assay [8] were 0.118, 0.096 and 3.34, respectively. The EC50 in assay [6] was 0.0156 µg/mL; in assay [7], 0.132 µg/mL.

B4: 3C7 scFv-Fc (Fc fusion)
chain: EIQLQQSGAELVKPGASVKMSCKASGYIFRNYYIHWVKRTPGQGLEWIGAIYPDNGDTSYNQRFKVKATLTADTSSSTAYMQLSSLTSEDSAVYYCARAFTYWGQGTTLTVSSGGGGSGGGGSGGGGSDIQMIQSPASLSASVGETVTITCGASENIYGALNWYQRKQGKSPQLLIYGATNLADGMSSRFSGSGSGRQYSLKISSLHPDDVATYYCQNVLSTPYTFGGGTKLEIKESKYGPPCPPCPAPEAAGGPSVFLFPPKPKDTLMISRTPEVTCVVVDVSQEDPEVQFNWYVDGVEVHNAKTKPREEQFNSTYRVVSVLTVLHQDWLNGKEYKCKVSNKGLPSSIEKTISKAKGQPREPQVYTLPPSQEEMTKNQVSLTCLVKGFYPSDIAVEWESNGQPENNYKTTPPVLDSDGSFFLYSKLTVDKSRWQEGNVFSCSVMHEALHNHYTQKSLSLSLG
notes: scFv-Fc dimer
In assay [1], B4 displayed a Kd of 3.99 nM. The molecule further returned a koff in assay [1] of 0.00114 s⁻¹. Besides, the kon in assay [1] was 287000 M⁻¹ s⁻¹. In addition, the binding result in assay [2] and in assay [3] was “no binding (tested: 10 µg/mL)” each time. Further, the “OD (450 nm) value” in assay [4] stood at 0.091; in assay [5] it was 0.133; in assay [8] it was 3.19. In addition, the results for the half-maximal effective concentration (EC50) in assay [6] and in assay [7] were 0.0166 µg/mL and 0.2 µg/mL, respectively.

B5: 3F11 scFv-Fc (Fc fusion)
chain: QVQLQQSGAELVKPGASVKMSCKASGYTFAPYNIHWVRQTPGQGLEWIGLIYPDNGDTSYNQKFKAKATLTADKSSSTAYMQLSSLTSEDSAVYYCARGGFDYWGQGTSLTVSSGGGGSGGGGSGGGGSDIVMTQSQKFMSTSVGDRVSVTCKASQNVGTNVAWYQQKPGQSPKALIYSASYRYSGVPDRFTGSGSGTDFTLTISNVQSEDLAEYFCQQHYSTPFTFGSGTKLEIKESKYGPPCPPCPAPEAAGGPSVFLFPPKPKDTLMISRTPEVTCVVVDVSQEDPEVQFNWYVDGVEVHNAKTKPREEQFNSTYRVVSVLTVLHQDWLNGKEYKCKVSNKGLPSSIEKTISKAKGQPREPQVYTLPPSQEEMTKNQVSLTCLVKGFYPSDIAVEWESNGQPENNYKTTPPVLDSDGSFFLYSKLTVDKSRWQEGNVFSCSVMHEALHNHYTQKSLSLSLG
notes: scFv-Fc dimer
In the case of B5, the equilibrium dissociation constant (Kd) in assay [1] stood at 6.13 nM. In assay [1], the koff worked out at 0.00203 s⁻¹. For the same molecule, the kon in assay [1] amounted to 331000 M⁻¹ s⁻¹. Also, the binding result in assay [2] and in assay [3] was “no binding (tested: 10 µg/mL)” throughout. In addition, the “OD (450 nm) value” in assay [4] was found to be 0.086; in assay [5], 0.093; in assay [8] it was 3.14. For the same molecule, the results for the EC50 in assay [6] and in assay [7] were 0.0156 µg/mL and 0.164 µg/mL, respectively.

For orientation: Kd means the concentration at which binding is half-saturated. For orientation: koff means the rate constant with which the complex falls apart. As a reminder, the kon is the second-order rate constant of association. Usually EC50 stands for the concentration needed to bring the measured effect to its halfway point.
